# Results from IntAct's records for PubMed 18820298.
# B1: CCAAT/enhancer-binding protein beta (Homo sapiens), P17676-2 (parent)
# chain: MEVANFYYEADCLAAAYGGKAAPAAPPAARPGPRPPAGELGSIGDHERAIDFSPYLEPLGAPQAPAPATATDTFEAAPPAPAPAPASSGQHHDFLSDLFSDDYGGKNCKKPAEYGYVSLGRLGAAKGALHPGCFAPLHPPPPPPPPPAELKAEPGFEPADCKRKEEAGAPGGGAGMAAGFPYALRAYLGYQAVPSGSSGSLSTSSSSSPPGTPSPADAKAPPTACYAGAAPAPSQVKSKAKKTVDKHSDEYKIRRERNNIAVRKSRDKAKMRNLETQHKVLELTAENERLQKKVEQLSRELSTLRNLFKQLPEPLLASSGHC
# Variants of: B1
# Conditions: with hdac4_human HDAC4, P56524
# Sequence of hdac4_human HDAC4, P56524 (P56524 whole entry): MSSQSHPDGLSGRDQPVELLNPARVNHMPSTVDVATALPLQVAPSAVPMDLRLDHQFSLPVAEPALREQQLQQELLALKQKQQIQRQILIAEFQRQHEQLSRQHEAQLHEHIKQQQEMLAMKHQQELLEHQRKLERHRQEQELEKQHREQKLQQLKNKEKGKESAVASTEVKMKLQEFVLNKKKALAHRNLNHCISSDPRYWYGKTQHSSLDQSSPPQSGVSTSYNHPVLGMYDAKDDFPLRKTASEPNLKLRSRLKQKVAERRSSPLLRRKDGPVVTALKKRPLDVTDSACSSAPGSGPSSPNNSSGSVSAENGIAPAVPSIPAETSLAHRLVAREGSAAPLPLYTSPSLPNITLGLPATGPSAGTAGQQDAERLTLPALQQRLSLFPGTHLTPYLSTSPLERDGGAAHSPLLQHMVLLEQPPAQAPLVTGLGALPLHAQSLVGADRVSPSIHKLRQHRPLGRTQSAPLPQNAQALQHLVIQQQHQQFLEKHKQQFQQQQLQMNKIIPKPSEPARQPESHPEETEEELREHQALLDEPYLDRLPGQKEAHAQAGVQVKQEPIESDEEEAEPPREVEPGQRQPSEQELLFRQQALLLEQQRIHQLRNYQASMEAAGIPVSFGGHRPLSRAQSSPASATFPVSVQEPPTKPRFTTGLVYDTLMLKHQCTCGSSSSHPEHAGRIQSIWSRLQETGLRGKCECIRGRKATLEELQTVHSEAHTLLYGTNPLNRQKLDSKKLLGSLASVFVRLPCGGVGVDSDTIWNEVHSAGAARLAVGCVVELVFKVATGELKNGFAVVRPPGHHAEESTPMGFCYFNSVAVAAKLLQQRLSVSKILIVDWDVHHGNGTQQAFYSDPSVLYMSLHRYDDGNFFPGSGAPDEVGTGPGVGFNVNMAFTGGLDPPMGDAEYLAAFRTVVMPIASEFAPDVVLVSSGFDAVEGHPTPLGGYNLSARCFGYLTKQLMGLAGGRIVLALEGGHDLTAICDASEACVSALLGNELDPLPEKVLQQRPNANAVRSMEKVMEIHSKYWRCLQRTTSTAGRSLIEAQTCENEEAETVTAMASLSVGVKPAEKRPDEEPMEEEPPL
row,Variant,effect of a mutation on the interaction
1,MEVANFYYEADCLAAAYGGKAAPAAPPAARPGPRPPAGELGSIGDHERAIDFSPYLEPLGAPQAPAPATATDTFEAAPPAPAPAPASSGQHHDFLSDLFSDDYGGKNCKKPAEYGYVSLGRLGAAKGALHPGCFAPLHPPPPPPPPPAELAAEPGFEPADCKRKEEAGAPGGGAGMAAGFPYALRAYLGYQAVPSGSSGSLSTSSSSSPPGTPSPADAKAPPTACYAGAAPAPSQVKSKAKKTVDKHSDEYKIRRERNNIAVRKSRDKAKMRNLETQHKVLELTAENERLQKKVEQLSRELSTLRNLFKQLPEPLLASSGHC [K151A],with no effect
